Results as given in the supplement of paper PMC12458215.
± gives the uncertainty stated by the source.

Tested on: HEK293T
Assay: plasma membrane surface immunostaining intensity (anti-HA, deep receptor scanning) (arbitrary fluorescence units); higher = higher plasma membrane expression

Sequence	plasma membrane surface immunostaining intensity (GPCR class: A)	further results
MAANVSGAKSCPANFLAAADDKLSGFQGDFLWPILVVEFLVAVASNGLALYRFSIRKQRPWHPAVVFSVQLAVSDLLCALTLPPLAAYLYPPKHWRYGEAACRLERFLFTCNLLGSVIFITCISLNRYLGIVHPFFARSHLRPKHAWAVSAAGWVLAALLAMPTLSFSHLKRPQQGAGNCSVARPEACIKCLGTADHGLAAYRAYSLVLAGLGCGLPLLLTLAAYGALGRAVLRSPGMTVAEKLRVAALVASGVALYASSYVPYHIMRVLNVDARRRWSTRCPSFADIAQATAALELGPYVGYQVMRGLMPLAFCVHPLLYMAAVPSLGCCCRHCPGYRDSWNPEDAKSTGQALPLNATAAPKPSEPQSRELSQ [P2RY11]	4350 ± 520	
MAATASPQPLATEDADSENSSFYYYDYLDEVAFMLCRKDAVVSFGKVFLPVFYSLIFVLGLSGNLLLLMVLLRYVPRRRMVEIYLLNLAISNLLFLVTLPFWGISVAWHWVFGSFLCKMVSTLYTINFYSGIFFISCMSLDKYLEIVHAQPYHRLRTRAKSLLLATIVWAVSLAVSIPDMVFVQTHENPKGVWNCHADFGGHGTIWKLFLRFQQNLLGFLLPLLAMIFFYSRIGCVLVRLRPAGQGRALKIAAALVVAFFVLWFPYNLTLFLHTLLDLQVFGNCEVSQHLDYALQVTESIAFLHCCFSPILYAFSSHRFRQYLKAFLAAVLGWHLAPGTAQASLSSCSESSILTAQEEMTGMNDLGERQSENYPNKEDVGNKSA [ACKR2]	6400 ± 110	
MADAQNISLDSPGSVGAVAVPVVFALIFLLGTVGNGLVLAVLLQPGPSAWQEPGSTTDLFILNLAVADLCFILCCVPFQATIYTLDAWLFGALVCKAVHLLIYLTMYASSFTLAAVSVDRYLAVRHPLRSRALRTPRNARAAVGLVWLLAALFSAPYLSYYGTVRYGALELCVPAWEDARRRALDVATFAAGYLLPVAVVSLAYGRTLRFLWAAVGPAGAAAAEARRRATGRAGRAMLAVAALYALCWGPHHALILCFWYGRFAFSPATYACRLASHCLAYANSCLNPLVYALASRHFRARFRRLWPCGRRRRHRARRALRRVRPASSGPPGCPGDARPSGRLLAGGGQGPEPREGPVHGGEAARGPE [GALR3]	2680 ± 290	
MAEENHTMKNEFILTGFTDHPELKTLLFVVFFAIYLITVVGNISLVALIFTHRRLHTPMYIFLGNLALVDSCCACAITPKMLENFFSENKRISLYECAVQFYFLCTVETADCFLLAAMAYDRYVAICNPLQYHIMMSKKLCIQMTTGAFIAGNLHSMIHVGLVFRLVFCGSNHINHFYCDILPLYRLSCVDPYINELVLFIFSGSVQVFTIGSVLISYLYILLTIFKMKSKEGRAKAFSTCASHFLSVSLFYGSLFFMYVRPNLLEEGDKDIPAAILFTIVVPLLNPFIYSLRNREVISVLRKILMKK [OR5K1]		plasma membrane surface immunostaining intensity (GPCR class: A (Olfactory)): 194 ± 62
MAEHDYHEDYGFSSFNDSSQEEHQDFLQFSKVFLPCMYLVVFVCGLVGNSLVLVISIFYHKLQSLTDVFLVNLPLADLVFVCTLPFWAYAGIHEWVFGQVMCKSLLGIYTINFYTSMLILTCITVDRFIVVVKATKAYNQQAKRMTWGKVTSLLIWVISLLVSLPQIIYGNVFNLDKLICGYHDEAISTVVLATQMTLGFFLPLLTMIVCYSVIIKTLLHAGGFQKHRSLKIIFLVMAVFLLTQMPFNLMKFIRSTHWEYYAMTSFHYTIMVTEAIAYLRACLNPVLYAFVSLKFRKNFWKLVKDIGCLPYLGVSHQWKSSEDNSKTFSASHNVEATSMFQL [CXCR6]	967 ± 65	
MAEMNLTLVTEFLLIAFTEYPEWALPLFLLFLFMYLITVLGNLEMIILILMDHQLHAPMYFLLSHLAFMDVCYSSITVPQMLAVLLEHGAALSYTRCAAQFFLFTFFGSIDCYLLALMAYDRYLAVCQPLLYVTILTQQARLSLVAGAYVAGLISALVRTVSAFTLSFCGTSEIDFIFCDLPPLLKLTCGESYTQEVLIIMFAIFVIPASMVVILVSYLFIIVAIMGIPAGSQAKTFSTCTSHLTAVSLFFGTLIFMYLRGNSDQSSEKNRVVSVLYTEVIPMLNPLIYSLRNKEVKEALRKILNRAKLS [OR9Q1]		plasma membrane surface immunostaining intensity (GPCR class: A (Olfactory)): 422 ± 160
MAERNYTVVTEFFLTAFTEHLQWRVPLFLIFLSFYLATMLGNTGMILLIRGDRRLHTPMYFFLSHLSLVDICYSSAIIPQMLAVLWEHGTTISQARCAAQFFLFTFFASIDCYLLAIMAYDRYTAVCQPLLYVTIITEKARWGLVTGAYVAGFFSAFVRTVTAFTLSFCGNNEINFIFCDLPPLLKLSCGDSYTQEVVIIVFALFVMPACILVILVSYLFIIVAILQIHSAGGRAKTFSTCASHLTAVALFFGTLIFMYLRDNTGQSSEGDRVVSVLYTVVTPMLNPLIYSLRNKEVKEATRKALSKSKPARRP [OR9Q2]		plasma membrane surface immunostaining intensity (GPCR class: A (Olfactory)): 188 ± 71
MAETSALPTGFGELEVLAVGMVLLVEALSGLSLNTLTIFSFCKTPELRTPCHLLVLSLALADSGISLNALVAATSSLLRRWPYGSDGCQAHGFQGFVTALASICSSAAIAWGRYHHYCTRSQLAWNSAVSLVLFVWLSSAFWAALPLLGWGHYDYEPLGTCCTLDYSKGDRNFTSFLFTMSFFNFAMPLFITITSYSLMEQKLGKSGHLQVNTTLPARTLLLGWGPYAILYLYAVIADVTSISPKLQMVPALIAKMVPTINAINYALGNEMVCRGIWQCLSPQKREKDRTK [RGR]	125 ± 16	
MAFLIILITCFVIILATSQPCQTPDDFVAATSPGHIIIGGLFAIHEKMLSSEDSPRRPQIQECVGFEISVFLQTLAMIHSIEMINNSTLLPGVKLGYEIYDTCTEVTVAMAATLRFLSKFNCSRETVEFKCDYSSYMPRVKAVIGSGYSEITMAVSRMLNLQLMPQVGYESTAEILSDKIRFPSFLRTVPSDFHQIKAMAHLIQKSGWNWIGIITTDDDYGRLALNTFIIQAEANNVCIAFKEVLPAFLSDNTIEVRINRTLKKIILEAQVNVIVVFLRQFHVFDLFNKAIEMNINKMWIASDNWSTATKITTIPNVKKIGKVVGFAFRRGNISSFHSFLQNLHLLPSDSHKLLHEYAMHLSACAYVKDTDLSQCIFNHSQRTLAYKANKAIERNFVMRNDFLWDYAEPGLIHSIQLAVFALGYAIRDLCQARDCQNPNAFQPWELLGVLKNVTFTDGWNSFHFDAHGDLNTGYDVVLWKEINGHMTVTKMAEYDLQNDVFIIPDQETKNEFRNLKQIQSKCSKECSPGQMKKTTRSQHICCYECQNCPENHYTNQTDMPHCLLCNNKTHWAPVRSTMCFEKEVEYLNWNDSLAILLLILSLLGIIFVLVVGIIFTRNLNTPVVKSSGGLRVCYVILLCHFLNFASTSFFIGEPQDFTCKTRQTMFGVSFTLCISCILTKSLKILLAFSFDPKLQKFLKCLYRPILIIFTCTGIQVVICTLWLIFAAPTVEVNVSLPRVIILECEEGSILAFGTMLGYIAILAFICFIFAFKGKYENYNEAKFITFGMLIYFIAWITFIPIYATTFGKYVPAVEIIVILISNYGILYCTFIPKCYVIICKQEINTKSAFLKMIYSYSSHSVSSIALSPASLDSMSGNVTMTNPSSSGKSATWQKSKDLQAQAFAHICRENATSVSKTLPRKRMSSI [GPRC6A]		plasma membrane surface immunostaining intensity (GPCR class: C): 158 ± 24
MAGAPGPLRLALLLLGMVGRAGPRPQGATVSLWETVQKWREYRRQCQRSLTEDPPPATDLFCNRTFDEYACWPDGEPGSFVNVSCPWYLPWASSVPQGHVYRFCTAEGLWLQKDNSSLPWRDLSECEESKRGERSSPEEQLLFLYIIYTVGYALSFSALVIASAILLGFRHLHCTRNYIHLNLFASFILRALSVFIKDAALKWMYSTAAQQHQWDGLLSYQDSLSCRLVFLLMQYCVAANYYWLLVEGVYLYTLLAFSVLSEQWIFRLYVSIGWGVPLLFVVPWGIVKYLYEDEGCWTRNSNMNYWLIIRLPILFAIGVNFLIFVRVICIVVSKLKANLMCKTDIKCRLAKSTLTLIPLLGTHEVIFAFVMDEHARGTLRFIKLFTELSFTSFQGLMVAILYCFVNNEVQLEFRKSWERWRLEHLHIQRDSSMKPLKCPTSSLSSGATAGSSMYTATCQASCS [GLP1R]		plasma membrane surface immunostaining intensity (GPCR class: B): 560 ± 52
MAGNNFTEVTVFILSGFANHPELQVSLFLMFLFIYLFTVLGNLGLITLIRMDSQLHTPMYFFLSNLAFIDIFYSSTVTPKALVNFQSNRRSISFVGCFVQMYFFVGLVCCECFLLGSMAYNRYIAICNPLLYSVVMSQKVSNWLGVMPYVIGFTSSLISVWVISSLAFCDSSINHFFCDTTALLALSCVDTFGTEMVSFVLAGFTLLSSLLIITVTYIIIISAILRIQSAAGRQKAFSTCASHLMAVTIFYGSLIFTYLQPDNTSSLTQAQVASVFYTIVIPMLNPLIYSLRNKDVKNALLRVIHRKLFP [OR8I2]		plasma membrane surface immunostaining intensity (GPCR class: A (Olfactory)): 189 ± 85
MAGVVHVSLAALLLLPMAPAMHSDCIFKKEQAMCLEKIQRANELMGFNDSSPGCPGMWDNITCWKPAHVGEMVLVSCPELFRIFNPDQVWETETIGESDFGDSNSLDLSDMGVVSRNCTEDGWSEPFPHYFDACGFDEYESETGDQDYYYLSVKALYTVGYSTSLVTLTTAMVILCRFRKLHCTRNFIHMNLFVSFMLRAISVFIKDWILYAEQDSNHCFISTVECKAVMVFFHYCVVSNYFWLFIEGLYLFTLLVETFFPERRYFYWYTIIGWGTPTVCVTVWATLRLYFDDTGCWDMNDSTALWWVIKGPVVGSIMVNFVLFIGIIVILVQKLQSPDMGGNESSIYLRLARSTLLLIPLFGIHYTVFAFSPENVSKRERLVFELGLGSFQGFVVAVLYCFLNGEVQAEIKRKWRSWKVNRYFAVDFKHRHPSLASSGVNGGTQLSILSKSSSQIRMSGLPADNLAT [ADCYAP1R1]		plasma membrane surface immunostaining intensity (GPCR class: B): 6416 ± 29
MALLLVSLLAFLSLGSGCHHRICHCSNRVFLCQESKVTEIPSDLPRNAIELRFVLTKLRVIQKGAFSGFGDLEKIEISQNDVLEVIEADVFSNLPKLHEIRIEKANNLLYINPEAFQNLPNLQYLLISNTGIKHLPDVHKIHSLQKVLLDIQDNINIHTIERNSFVGLSFESVILWLNKNGIQEIHNCAFNGTQLDELNLSDNNNLEELPNDVFHGASGPVILDISRTRIHSLPSYGLENLKKLRARSTYNLKKLPTLEKLVALMEASLTYPSHCCAFANWRRQISELHPICNKSILRQEVDYMTQARGQRSSLAEDNESSYSRGFDMTYTEFDYDLCNEVVDVTCSPKPDAFNPCEDIMGYNILRVLIWFISILAITGNIIVLVILTTSQYKLTVPRFLMCNLAFADLCIGIYLLLIASVDIHTKSQYHNYAIDWQTGAGCDAAGFFTVFASELSVYTLTAITLERWHTITHAMQLDCKVQLRHAASVMVMGWIFAFAAALFPIFGISSYMKVSICLPMDIDSPLSQLYVMSLLVLNVLAFVVICGCYIHIYLTVRNPNIVSSSSDTRIAKRMAMLIFTDFLCMAPISFFAISASLKVPLITVSKAKILLVLFHPINSCANPFLYAIFTKNFRRDFFILLSKCGCYEMQAQIYRTETSSTVHNTHPRNGHCSSAPRVTSGSTYILVPLSHLAQN [FSHR]	378 ± 44	
MALTPESPSSFPGLAATGSSVPEPPGGPNATLNSSWASPTEPSSLEDLVATGTIGTLLSAMGVVGVVGNAYTLVVTCRSLRAVASMYVYVVNLALADLLYLLSIPFIVATYVTKEWHFGDVGCRVLFGLDFLTMHASIFTLTVMSSERYAAVLRPLDTVQRPKGYRKLLALGTWLLALLLTLPVMLAMRLVRRGPKSLCLPAWGPRAHRAYLTLLFATSIAGPGLLIGLLYARLARAYRRSQRASFKRARRPGARALRLVLGIVLLFWACFLPFWLWQLLAQYHQAPLAPRTARIVNYLTTCLTYGNSCANPFLYTLLTRNYRDHLRGRVRGPGSGGGRGPVPSLQPRARFQRCSGRSLSSCSPQPTDSLVLAPAAPARPAPEGPRAPA [UTS2R]	2430 ± 120	
